Assay results: publication PMC4259101

Molecular target: MED14-containing head+middle (H+M+14) complex (human) (UniProt O60244)
Assay: co-IP

For “RNA polymerase II (from UniProt P24928;P61218) (complex)”, the percent of input bound was < 75 % of input.
